Assay [1] addresses α-synuclein (human) (UniProt P37840).
For assay [2] the target is unchanged. This is another data set of the same source.
Assay [3] shares this target. The source holds these as a separate data set.
Assay [4] has the same target. The source holds these as a separate data set.

With “DNAJB6b (from UniProt O75190-2 1-241) (natural protein)”, the apparent solubility of α-syn (free monomer in supernatant by HPLC-MS) with 7.8 to 62.5 nM JB6, pH 5.5 (0.8 μM for α-syn alone; 125 nM JB6 not at equilibrium, 16 μM) with α-synuclein (human) [1] amounted to 7.7 μM. In addition, in the assay with α-synuclein (human) [2], the apparent solubility of α-syn (free monomer by 1D 1H NMR at about 300 h) with 250 nM JB6, pH 5.5 was 0.47 μM. In addition, the half-time of loss of free α-syn monomer by 1D 1H NMR, 20 μM α-syn with 250 nM JB6 (4.9 h without JB6), pH 5.5, 37 °C with α-synuclein (human) [3] stood at 35 h. In the assay with α-synuclein (human) [4], the apparent solubility of α-syn (free monomer in supernatant by HPLC-MS) with 0.12 and 2 μM JB6, pH 4.5 amounted to 2.3 μM.
